Experimental data as given in the DeepSol protein solubility set.

test: soluble on expression in E. coli; label from the status in PepcDB or PDB records

Row | Sequence | soluble on expression in E. coli
1 | MMKQHLDALKDSKYCPLWHDQDIRPETLPALSADTSCELLIVGGGFTGLWGALQAKERQPDADIILIEKTTISDGASGRNGGFLSSSLAHGETNTDHQFPGEADKLHQLGQQNLKEFIETLEHYNIDARYEKVGETSVATDQASVDALRATYESEKAQGEDVVWFNQEEMQAQVNSPTYLAGLWYRGGQDGVVDPARLCWGLKRVILELGVRIYEETPLTSLKKLGQDKMEVTCSDVKIISDKVLMATNAYRNPIGQARRSIIPVWDYQIATQPLSQEQLDSIGWHKSRHALSNHANMFHYYRFTKDNRITWGGGGAVRYYFNNGIDQSYADIPERFAQLSEEFFETFPQLKGIKFTHRWSGIIATSTRFCVVPGVAYDGRVAWAIGYTGLGVGASRFGARIGIELLGYKPSEILDMQFVKKKPIPWAPEPLRWIGVYLTHKALEKADANGGKRGLWLKLLDMLNLGFTCLEHHHHHH | not soluble
2 | MMKVLAFDTSSKALSVAVLNNMECLATVTINIKKNHSINLMPAIDFLMQSIDLEPQDLDRIVVAEGPGSYTGLRVAVATAKMLAYTLKIDLVGVSSLYALTNGFSENDLLVPLIDARRNNVYVGFYQNGDTVKPDCHTSLEEVLQEVGNKANVHFVGEVAAFFDQIKKALPHAKITETLPCAVAIGRKGQKMKSVNVDAFVPRYLKRVEAEENWLKNHCETNTEEYIKRVLEHHHHHH | not soluble
3 | MMLENKSINELYSIKLIEEADTKRLIKFMNKYMNSKHEFEMSKRIFLSDQILNQECYNDINIRSSIYNFYEEYIVMEKEGKIAALIALDINRNNLSKVLNLNLIICEEGEMSRLRDMFIFATEILPEYSIVEPTKIRTYIRENGIFTEYWKNKLMEAGFSHEVTRENEVGNGVALTTMIIKMK | not soluble
4 | MMLPKEIMMPNDNPYALHRVKVLKVYSLTETEKLFLFRFEDPELAEKWTFKPGQFVQLTIPGVGEVPISICSSPMRKGFFELCIRKAGRVTTVVHRLKPGDTVLVRGPYGNGFPVDEWEGMDLLLIAAGLGTAPLRSVFLYAMDNRWKYGNITFINTARYGKDLLFYKELEAMKDLAEAENVKIIQSVTRDPNWPGLKGRPQQFIVEANTNPKNTAVAICGPPRMYKSVFEALINYGYRPENIFVTLERRMKCGIGKCGHCNVGTSTSWKYICKDGPVFTYFDIVSTPGLLD | not soluble
5 | MMMDLNIRRVVLDVDKGLNRPTLVELAAAIEKVQGVEAVNIIVTEMDMETMGTNITVEGTNINYDELIETIENTGSAIHSVDEIAVGKRLIENVRR | not soluble
6 | MMNKDLSYCIVLSSEQLSYLAGSKYGIDRMKILNRLIEATVLEQTEYSKKGFAMTLQVGQAALSEVELSCKLGYDKKTISRVIDKMNQLGIVASVQSNRTSIHTQKCVSAWMLDGKRIDNPFYVRMKNRKDGNEKTANRPYNNSILPMKQQHILESNAEANCPTQTQTDNTAVSDETYSPDLSTSPTSSETPVTAYDDKNRNGYDELKAETNNHELLHTPTTTSGYEIAGNGSDNDAAQVNSTSAYPTTTLASPQPLAEEEPTNDQGNDWQL | not soluble
7 | MMNKKEARTLIKERRMNLSKEYIDVASDKIFEKLLQNEDFKNVKTVMSYMDFKNEVKTDRINTFIKNSGKILVLPKVVDKETMIVIEDKNQYIVSPFGNKEPDGEEYKGSIDVIITPGVAFDRDKNRVGFGRGYYDRFFVKQPNAKKIAIAFEKQIIDEGIETDKYDKKVDILITEDEIIKLEHHHHHH | soluble
8 | MMPKVYGSLVDNETRCTHYHTFLDVIAIKFKCCNKYYPCYQCHEEHETHPIKRWSEQEFDEKAIMCGVCKHEMSIQDYMMTELCPKCQAHFNSRCKFHYHLYFELLEHHHHHH | not soluble
9 | MMQTSTSSRVRRYPYQITLSLVLKGFYSPSAPSYDFCLVLLPTLFLIDLMPIKFSLHVTIGIGEATPVPIFFFSAPWYFRSGNPLPHCVRAYRCKVNFPFFRLGWSTWLHY | soluble
10 | MMRDSPSIQGTLDAATQHALLAGRHADPFSVLGPHQAGAHTVVRVLAPGARTVMAVLPGGQRTPLLPMQPGLFENTVPGLQPGAPAAYRLCIEWEGGIQHTADPYAFGPVLD | not soluble
11 | MMSGAEEPVAIIFPQSASDGVEVLYQEFSFGRYFNQIAAGVLRGIVQTRQPRQPLRILEVGGGTGGTTAWLLPELNGVPALEYHFTDISALFTRRAQQKFADYDFVKYSELDLEKEAQSQGFQAQSYDLIVAANVIHATRHIGRTLDNLRPLLKPGGRLLMREITQPMRLFDFVFGPLVLPLQDLDAREGELFLTTAQWQQQCRHAGFSKVAWLPQDGSPT | not soluble
12 | MMSNQTVYQFIAENQNELLQLWTDTLKELSEQESYQLTDQVYENISKEYIDILLLSVKDENAAESQISELALRAVQIGLSMKFLATALAEFWKRLYTKMNDKRLPDQESTELIWQIDRFFSPINTEIFNQYSISWE | soluble
13 | MMTGLTLLSCSTENDEFKKELPPTEQPSEPTGALLERFSIDQLPAKTIYALGESIDLTGLKVTGEYDDGKQRSVNVAPKQISGFSSSVPVDKQEVTITIEGKQKSFTIQVAPVRVENGVLTEVLKGYDEIILPNSVKSIPKNAFNGSKINKVTLNEGLKSIGDMAFFNSTIQEVIFPSTLEQLEENIFYYCYHLKKADLSRTKLTKLPASTFVYAGVEEVLLPATLTEIDAQAFLKTSQLKTIEIPENVRTIGLEAFRESSITTVKLPNGVTNIAQRAFYYCPELTEVTTYGTVFNDDPEAMIHPYCLEGCPQLTRFEIPQSIRILGQGLLGGNRKVTQLTIPANVTQINFSAFNNTGIKEVKVEGITPPQVFEKIWYGFPDDITVIRVPAESVEKYKTAAGWQDYTNKIQASLEHHHHHH | soluble
14 | MMTVLRSQIESILLVVDQPASVAALARATEAAPETVTSVLRSMAQEFEDRGSGIEVRESPEGWRLYTVKRNADVVEKFLLDGSHTKLSRAALETLAVVAYRQPATRAQVAAVRGVNVDGVMRTLQLRGLIREVAINPGTEGVNGSAHRYETTELFLDLLGIDSLERLPDLAPLLPDIDSIDEYF | not soluble
15 | MMVVKVKMLYWVDEVGGRAESMEIELKPFGYRTAPITQWEVLIAAEDVEVEKGKPVIVRVEPVFLPGNTLVGPLSIMRHALGTLVDVVECGVPGRVEDEKCISRVLFLPVEDGVIKKGDMVGVLKVFYIKTGLLTRILGLEPPKVELKKGFHEANIVWRDNGNIYREPAKVTILGYMRSHIGVWELLVADETVRVKRGDVLRIRIKEVRLPPNTVVVPLPVMRNAFGTVLDVVQLGKPSRVEEEKTLHQAIFLAVEDGVIEEGDLIGVINVYYVGLGDFKPLVQDKPPQKVRIVYRSGDGIVKREVEVEPFGYRRSPVGKWEALIADESKPVRYGEPVVVKVKRVRVPPKTILYPLHIMRHAYGTVADVFCDCKPWKVEEGGEIKKVVFLPVMDGEIKEGELLGIINLHDVELSPLGRVRQWLDNWLTEMGRTFDEGDWPLWLEHHHHHH | soluble
16 | MMYIYTYTDPFGKRRYTYSKDLVKLREKEQKLLKDQLDGLDVYAAGNANLNFVFDRYISTKTELRRTTYTNYMYMYDHYVRDSFGKKKIGEIKYSDVLYFYYHLINERKLQVNTLETIHTVLHPTFQLAVRDDIIRNNPSHGVMSEIKKKPGRNHGVRHALTVEQQRAFMNYTSNSPVFNHWAPLFTVLLGTGCRIGEIIGIRWEDIDLEKRLININHSVTYYPRRAETTKCEFAVSLPKTEAGIRTVPMMEPVYNAFMEEYEYQKENGFSTVTLDGMEGFIFTNRFGNLHNPQAVNRTIKRI | not soluble
17 | MNAADRVMQSYGRCCASTGFFDDFYRHFLASSPQIRAKFATTDMTAQKHLLRAGIMNLVMYARGMSDSKLRALGASHSRAALDIRPELYDLWLDALLMAVAEHDRDCDAETRDAWRDVMGRGIAVIKSYY | soluble
18 | MNAKEILVHSLRLLENGDARGWCDLFHPEGVLEFPYAPPGWKTRFEGRETIWAHMRLFPEHLTVRFTDVQFYETADPDLAIGEFHGDGVATVSGGKLAQDYISVLRTRDGQILLYRDFWNPLRHLEALGGVEAAAKIVQGA | soluble
19 | MNALLRFTLGLCSMTLLAGCGENIDHSKIRSSGFVYCGESAPTTFNPQLADNDITSDALGPQIYNTLLTIDPETHLPVASLASSWTVNSTGLEYVFKLRPDVAFQTTPWFSPTRPLNADDVVFSFRRIIDPTNPYHKVGQTQYPWFKGIDFQNLLVDVSALDDLTVKFVLSRPDNSFLSNIATSHAVILSLEYANQLIIDDEKEKLDNLPLGTGPFYLAEYHPRDLIRLKRHPQYWEGAAKVEQVVFDISQRGTGMLAKLLRNECDVLNAPISSQLPAIEKNPDIVLQTTPAMNVAFIAVNTQHPALNDNRVRKALNFAINRQNILDSVYYGTGSIAFTILPPTSWAYQQDTAQIRYDRNYAQALLREAGFATGLELTMSVPVEPKAYNPSPRKTAELIQANLADIGVTLRLISEDRSERQELSIRNNIDLYLSGWTGDTGDPDNFLRPLLSCDSNRAGLNVSMWCDSDFDFLLDLALEANKPRYRLNLYHQAQNILNQEFPVIPLAHGIQFTAYSKSLTGIRISPFNVQPFNTVERVAE | not soluble
20 | MNASDFRRRGKEMVDYMADYLEGIEGRQVYPDVQPGYLRPLIPATAPQEPDTFEDILQDVEKIIMPGVTHWHSPYFFAYFPTASSYPAMLADMLCGAIGCIGFSWAASPACTELETVMMDWLGKMLQLPEAFLAGEAGEGGGVIQGSASEATLVALLAARTKVVRRLQAASPGLTQGAVLEKLVAYASDQAHSSVERAGLIGGVKLKAIPSDGKFAMRASALQEALERDKAAGLIPFFVVATLGTTSCCSFDNLLEVGPICHEEDIWLHVDAAYAGSAFICPEFRHLLNGVEFADSFNFNPHKWLLVNFDCSAMWVKRRTDLTGAFKLDPVYLKHSHQGSGLITDYRHWQLPLGRRFRSLKMWFVFRMYGVKGLQAYIRKHVQLSHEFEAFVLQDPRFEVCAEVTLGLVCFRLKGSDGLNEALLERINSARKIHLVPCRLRGQFVLRFAICSRKVESGHVRLAWEHIRGLAAELLAAEEGKAEIKS | soluble
21 | MNCRLGCGACCIAPSISSVIPGMPNGKAAGERCVQLSDDNLCLIFGSPERPAVCCDFEASLDVCGHSNEEALWLITNLESQTS | soluble
22 | MNDATPDQLRTGPSRETPRFQQIVQDIKRRIADGSLSEHAALPSERRIAEETGISRMTARRALDALEAEGLVYSADRRGRFVSPKRVSYDVSNLVSFVADAESRGTALGIEVIRAQEGKADPALAARLELEPGAAIHEYTRLFRQDGHAIFVETEYVDARRCPDFLSHDLHQSTTRLLESQYDLVARTGDIVIRMRGAHPEETHLLGLAQSQSGIELTQVIRDASGRPFCFGRQFWRGEMAEFSARAIVGGSIHG | not soluble
23 | MNDFHRDTWAEVDLDAIYDNVENLRRLLPDDTHIMAVVKANAYGHGDVQVARTALEAGASRLAVAFLDEALALREKGIEAPILVLGASRPADAALAAQQRIALTVFRSDWLEEASALYSGPFPIHFHLKMDTGMGRLGVKDEEETKRIVALIERHPHFVLEGLYTHFATADEVNTDYFSYQYTRFLHMLEWLPSRPPLVHCANSAASLRFPDRTFNMVRFGIAMYGLAPSPGIKPLLPYPLKEAFSLHSRLVHVKKLQPGEKVSYGATYTAQTEEWIGTIPIGYADGWLRRLQHFHVLVDGQKAPIVGRICMDQCMIRLPGPLPVGTKVTLIGRQGDEVISIDDVARHLETINYEVPCTISYRVPRIFFRHKRIMEVRNAIGRGESSA | soluble
24 | MNDGKISILVLGADKAQGGQSRTDSIMVVQYDFINKKMKMMSVMRDIYADIPGYGKHKINSAYALGGPKLLRKTLDKNLGINPEYYAVVDFTGFEKMIDELMPEGVPINVEKDMSKNIGVSLKKGNHRLNGKELLGYARFRHDPEGDFGRVRRQQQVMQTLKKEMVNFRTVVKLPKVAGILRGYVNTNIPDSGIFQTGLSFGIRGEKDVKSLTVPIKNSYEDVNTNTDGSALQINKNTNKQAIKDFLDEDLEHHHHHH | soluble
